Molecular target: TdsR receptor of E. coli (on cells) (E. coli (endogenous in E. coli cells))
Assay: flow cytometry on cells

**Q.** With TepC-GFP (natural protein) as the substance, how does the GFP-labeled cells read?
**A.** Its GFP-labeled cells is 33.1%.

From article PMC10833071
